Reference: publication PMC5715905, “Mechanistic insight into the assembly of the HerA–NurA helicase–nuclease DNA end resection complex” (Nucleic Acids Research, 2017)

Columns and labels:
[1] = molecular target: the molecule itself; assay: native MS; HerA incubated with NurA (2:3 molar ratio of monomers), no dsDNA, no nucleotide, 200 mM ammonium acetate
[2] = molecular target: T1, HerA helicase, wild type (Sulfolobus solfataricus) (S. solfataricus, UniProt Q97WG8 1-500); assay: as above; conditions: both partners purified
T1 construct: HerA helicase of the thermophilic archaeon Sulfolobus solfataricus; In solution a mix of hexamer and heptamer; the hexamer is the form found with NurA; No tag is named in the purification; Expression and constructs may be described in the supplementary materials and methods; also called apo-HerA; wild-type HerA; source: cells lysed by sonication, lysate heated at 70°C, purified (Heparin HP, …)
T1 sequence: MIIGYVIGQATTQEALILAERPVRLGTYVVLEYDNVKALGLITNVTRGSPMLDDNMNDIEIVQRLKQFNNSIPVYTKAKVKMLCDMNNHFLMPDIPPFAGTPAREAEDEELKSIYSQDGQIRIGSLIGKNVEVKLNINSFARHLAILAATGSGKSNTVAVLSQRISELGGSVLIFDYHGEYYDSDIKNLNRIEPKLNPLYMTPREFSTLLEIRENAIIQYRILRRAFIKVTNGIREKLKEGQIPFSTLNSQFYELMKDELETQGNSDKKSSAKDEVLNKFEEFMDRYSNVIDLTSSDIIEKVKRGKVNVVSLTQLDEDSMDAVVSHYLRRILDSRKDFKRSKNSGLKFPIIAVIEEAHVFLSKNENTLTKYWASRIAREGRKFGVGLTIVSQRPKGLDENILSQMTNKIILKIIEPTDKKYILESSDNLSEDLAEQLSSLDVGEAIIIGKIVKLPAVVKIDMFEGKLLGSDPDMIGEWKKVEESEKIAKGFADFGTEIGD

[3] = molecular target: T1, HerA helicase, wild type (Sulfolobus …); assay: native MS; HerA incubated with NurA and a 25 bp blunt-ended dsDNA (protein and DNA 1:1, 30 min at room temperature), no nucleotide, 200 mM ammonium acetate; conditions: both partners purified
HerA;NurA H306A = molecular target: T2, HerA;NurA H306A (thermophilic archaeon, Sulfolobus …, UniProt Q97WG8;Q97WH1 1-500;1-339, |H306A); assay: fluorescence anisotropy; no nucleotide; Hill fit; monomeric HerA concentration; FA: 5 nM dsDNA, 100 mM NaCl, 20 mM Hepes-NaOH pH 8.0, 30 min room temperature (with nucleotide: 2 mM plus 5 mM MgCl2); native MS: 200 mM ammonium acetate pH 7.0-7.5, 1:1 protein:DNA, 30 min room temperature; conditions: protein: recombinant;recombinant; tags: ;; chain copies: 6;2; label: 5'-fluorescein on strand 1; blunt
T2 sequence 1: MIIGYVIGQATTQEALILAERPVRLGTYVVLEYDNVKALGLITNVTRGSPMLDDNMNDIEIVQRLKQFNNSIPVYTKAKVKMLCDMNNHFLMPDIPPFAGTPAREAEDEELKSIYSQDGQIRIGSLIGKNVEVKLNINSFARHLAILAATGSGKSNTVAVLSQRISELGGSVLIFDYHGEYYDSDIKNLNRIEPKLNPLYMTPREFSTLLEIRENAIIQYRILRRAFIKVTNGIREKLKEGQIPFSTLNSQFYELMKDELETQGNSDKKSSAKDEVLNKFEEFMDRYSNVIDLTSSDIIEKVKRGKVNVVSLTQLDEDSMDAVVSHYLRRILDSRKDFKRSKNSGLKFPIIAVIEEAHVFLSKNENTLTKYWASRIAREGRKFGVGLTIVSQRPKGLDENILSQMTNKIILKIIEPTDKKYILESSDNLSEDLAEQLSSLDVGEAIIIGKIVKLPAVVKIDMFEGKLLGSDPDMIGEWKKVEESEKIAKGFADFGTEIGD
T2 sequence 2: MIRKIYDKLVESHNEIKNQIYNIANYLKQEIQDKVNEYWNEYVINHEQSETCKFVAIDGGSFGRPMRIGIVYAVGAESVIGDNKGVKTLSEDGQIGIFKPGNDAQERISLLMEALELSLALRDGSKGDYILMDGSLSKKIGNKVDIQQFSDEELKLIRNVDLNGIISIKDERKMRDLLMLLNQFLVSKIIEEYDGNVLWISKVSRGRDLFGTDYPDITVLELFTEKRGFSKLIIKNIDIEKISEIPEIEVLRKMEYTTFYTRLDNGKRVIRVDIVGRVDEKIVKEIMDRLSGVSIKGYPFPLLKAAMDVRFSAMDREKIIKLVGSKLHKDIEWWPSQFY

HerA [4] = molecular target: T3, HerA (thermophilic archaeon, Sulfolobus …, UniProt Q97WG8 1-500); assay: fluorescence anisotropy; 2 mM ATPgS, 5 mM MgCl2; HerA monomer concentration; FA: 5 nM dsDNA, 100 mM NaCl, 20 mM Hepes-NaOH pH 8.0, 30 min room temperature (with nucleotide: 2 mM plus 5 mM MgCl2); native MS: 200 mM ammonium acetate pH 7.0-7.5, 1:1 protein:DNA, 30 min room temperature; conditions: protein: recombinant; chain copies: 6; label: 5'-fluorescein on strand 1; blunt
T3 sequence: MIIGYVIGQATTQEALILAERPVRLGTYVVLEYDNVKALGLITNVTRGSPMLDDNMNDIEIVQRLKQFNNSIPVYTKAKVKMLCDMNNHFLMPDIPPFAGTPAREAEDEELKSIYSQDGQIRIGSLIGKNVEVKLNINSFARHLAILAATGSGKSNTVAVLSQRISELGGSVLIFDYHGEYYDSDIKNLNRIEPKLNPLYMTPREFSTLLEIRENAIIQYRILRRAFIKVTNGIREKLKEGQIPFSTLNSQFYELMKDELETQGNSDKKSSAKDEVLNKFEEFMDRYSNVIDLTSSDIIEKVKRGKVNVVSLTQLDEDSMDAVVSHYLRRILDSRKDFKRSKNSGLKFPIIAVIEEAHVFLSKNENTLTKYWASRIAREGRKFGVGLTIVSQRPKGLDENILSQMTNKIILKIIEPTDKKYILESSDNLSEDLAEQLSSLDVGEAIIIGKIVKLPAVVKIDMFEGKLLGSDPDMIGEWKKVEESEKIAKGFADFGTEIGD

HerA [5] = molecular target: T3, HerA; assay: fluorescence anisotropy; no nucleotide; HerA monomer concentration; FA: 5 nM dsDNA, 100 mM NaCl, 20 mM Hepes-NaOH pH 8.0, 30 min room temperature (with nucleotide: 2 mM plus 5 mM MgCl2); native MS: 200 mM ammonium acetate pH 7.0-7.5, 1:1 protein:DNA, 30 min room temperature; conditions: protein: recombinant; chain copies: 6; label: 5'-fluorescein on strand 1; blunt
HerA K154A = molecular target: T4, HerA K154A (thermophilic archaeon, Sulfolobus …, UniProt Q97WG8 1-500, K154A); assay: native MS; FA: 5 nM dsDNA, 100 mM NaCl, 20 mM Hepes-NaOH pH 8.0, 30 min room temperature (with nucleotide: 2 mM plus 5 mM MgCl2); native MS: 200 mM ammonium acetate pH 7.0-7.5, 1:1 protein:DNA, 30 min room temperature; conditions: protein: recombinant; chain copies: 6; blunt
T4 sequence: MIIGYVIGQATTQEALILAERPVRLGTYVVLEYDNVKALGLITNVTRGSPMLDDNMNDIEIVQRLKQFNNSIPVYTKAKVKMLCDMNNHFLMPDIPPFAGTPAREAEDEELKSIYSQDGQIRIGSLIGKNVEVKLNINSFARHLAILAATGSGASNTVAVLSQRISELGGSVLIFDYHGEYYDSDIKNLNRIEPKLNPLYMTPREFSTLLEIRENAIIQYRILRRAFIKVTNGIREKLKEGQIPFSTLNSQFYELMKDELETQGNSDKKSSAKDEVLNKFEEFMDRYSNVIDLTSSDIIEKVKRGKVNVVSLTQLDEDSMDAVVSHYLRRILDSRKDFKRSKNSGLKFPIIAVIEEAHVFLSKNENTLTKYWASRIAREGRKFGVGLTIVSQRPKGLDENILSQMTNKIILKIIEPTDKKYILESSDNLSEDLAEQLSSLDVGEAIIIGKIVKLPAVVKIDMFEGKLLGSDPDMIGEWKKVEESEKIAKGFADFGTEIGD

HerA;NurA = molecular target: T5, HerA;NurA (thermophilic archaeon, Sulfolobus …, UniProt Q97WG8;Q97WH1 1-500;1-339, |); assay: native MS; no nucleotide; dsDNA intact; FA: 5 nM dsDNA, 100 mM NaCl, 20 mM Hepes-NaOH pH 8.0, 30 min room temperature (with nucleotide: 2 mM plus 5 mM MgCl2); native MS: 200 mM ammonium acetate pH 7.0-7.5, 1:1 protein:DNA, 30 min room temperature; conditions: protein: recombinant;recombinant; tags: ;; chain copies: 6;2; blunt
T5 sequence 1: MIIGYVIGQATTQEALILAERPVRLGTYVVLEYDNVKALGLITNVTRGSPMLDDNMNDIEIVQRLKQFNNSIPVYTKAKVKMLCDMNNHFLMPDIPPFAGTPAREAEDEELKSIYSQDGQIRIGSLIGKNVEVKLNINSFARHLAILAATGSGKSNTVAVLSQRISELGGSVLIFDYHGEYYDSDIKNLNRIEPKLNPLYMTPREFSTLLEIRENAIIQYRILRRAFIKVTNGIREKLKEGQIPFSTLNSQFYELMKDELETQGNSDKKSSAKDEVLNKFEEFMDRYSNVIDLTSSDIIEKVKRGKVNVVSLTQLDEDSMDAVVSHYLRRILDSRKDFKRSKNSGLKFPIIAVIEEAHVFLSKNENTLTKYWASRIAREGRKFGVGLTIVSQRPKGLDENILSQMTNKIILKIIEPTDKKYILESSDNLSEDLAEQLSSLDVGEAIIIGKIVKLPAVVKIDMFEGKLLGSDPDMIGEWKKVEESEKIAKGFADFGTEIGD
T5 sequence 2: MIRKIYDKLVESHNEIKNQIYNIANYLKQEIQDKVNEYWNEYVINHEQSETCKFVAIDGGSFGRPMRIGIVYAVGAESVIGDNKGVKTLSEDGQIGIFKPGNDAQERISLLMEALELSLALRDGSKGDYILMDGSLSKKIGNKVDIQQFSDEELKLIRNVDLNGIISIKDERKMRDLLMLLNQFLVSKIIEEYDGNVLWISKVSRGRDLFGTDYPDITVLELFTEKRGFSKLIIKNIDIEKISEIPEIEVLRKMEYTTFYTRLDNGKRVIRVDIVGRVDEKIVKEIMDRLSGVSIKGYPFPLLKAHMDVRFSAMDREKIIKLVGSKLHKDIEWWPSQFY

B1: NurA nuclease, wild type (Sulfolobus solfataricus) (enzyme, S. solfataricus)
chain: MIRKIYDKLVESHNEIKNQIYNIANYLKQEIQDKVNEYWNEYVINHEQSETCKFVAIDGGSFGRPMRIGIVYAVGAESVIGDNKGVKTLSEDGQIGIFKPGNDAQERISLLMEALELSLALRDGSKGDYILMDGSLSKKIGNKVDIQQFSDEELKLIRNVDLNGIISIKDERKMRDLLMLLNQFLVSKIIEEYDGNVLWISKVSRGRDLFGTDYPDITVLELFTEKRGFSKLIIKNIDIEKISEIPEIEVLRKMEYTTFYTRLDNGKRVIRVDIVGRVDEKIVKEIMDRLSGVSIKGYPFPLLKAHMDVRFSAMDREKIIKLVGSKLHKDIEWWPSQFY
notes: NurA nuclease of the thermophilic archaeon Sulfolobus solfataricus; Homodimer; No tag is named in the purification; also called NurA^WT; NurA dimer; source: cells lysed by sonication, lysate heated at 70°C, purified (Heparin HP, HiTrap Q HP)
How did the “stoichiometry N” value [1] turn out when B1 was run?
The value was 2.

Does B1 bind [2]?
Result: binds

B2: NurA H306A, nuclease-inactive mutant (Sulfolobus solfataricus) (enzyme, S. solfataricus)
chain: MIRKIYDKLVESHNEIKNQIYNIANYLKQEIQDKVNEYWNEYVINHEQSETCKFVAIDGGSFGRPMRIGIVYAVGAESVIGDNKGVKTLSEDGQIGIFKPGNDAQERISLLMEALELSLALRDGSKGDYILMDGSLSKKIGNKVDIQQFSDEELKLIRNVDLNGIISIKDERKMRDLLMLLNQFLVSKIIEEYDGNVLWISKVSRGRDLFGTDYPDITVLELFTEKRGFSKLIIKNIDIEKISEIPEIEVLRKMEYTTFYTRLDNGKRVIRVDIVGRVDEKIVKEIMDRLSGVSIKGYPFPLLKAAMDVRFSAMDREKIIKLVGSKLHKDIEWWPSQFY
notes: NurA nuclease of Sulfolobus solfataricus with H306A; Made to prevent dsDNA degradation in the HerA-NurA-dsDNA complex; source: cells lysed by sonication, lysate heated at 70°C, purified (Heparin HP, HiTrap Q HP)
Does B2 bind [3]?
Result: binds

B3: 5'-fluorescein 25 bp dsDNA (dsDNA)
DNA 1: GTAGTCCGGACGACAAACGCCGACT
DNA 2: AGTCGGCGTTTGTCGTCCGGACTAC
B3 was tested. Which Kd (HerA;NurA H306A) did it give?
Its Kd is 0.51 ± 0.0304 µM.

And the Kd (HerA [4])?
Its Kd is 3.22 ± 0.27 µM.

What about the Kd (HerA [5]) of the same binder?
Its Kd is 4.85 ± 0.47 µM.

B4: 25 bp dsDNA (dsDNA)
DNA 1: GTAGTCCGGACGACAAACGCCGACT
DNA 2: AGTCGGCGTTTGTCGTCCGGACTAC
Does B4 bind (HerA K154A)?
Result: no binding

Does B4 bind (HerA;NurA)?
Result: binds
